According to patent publication US20180086837A1:

Tests used:
[1] = biological target: cynomolgus CXCR4 (cynomolgus) (UniProt Q28474); test: flow cytometry, transfected HEK293T cells; normalisation reference (column 100 nM)
hCXCR4-V196E (human) [2] = biological target: hCXCR4-V196E (human) (UniProt P61073); test: as above
[3] = biological target: cynomolgus CXCR4 (cynomolgus) (UniProt Q28474); test: flow cytometry, transfected HEK293T cells; normalisation reference (column 10 nM)
hCXCR4-V196E (human) [4] = biological target: hCXCR4-V196E (human) (UniProt P61073); test: as above

Measured: % binding relative to hCXCR4

cynomolgus CXCR4 (cynomolgus), sequence (Q28474 whole entry): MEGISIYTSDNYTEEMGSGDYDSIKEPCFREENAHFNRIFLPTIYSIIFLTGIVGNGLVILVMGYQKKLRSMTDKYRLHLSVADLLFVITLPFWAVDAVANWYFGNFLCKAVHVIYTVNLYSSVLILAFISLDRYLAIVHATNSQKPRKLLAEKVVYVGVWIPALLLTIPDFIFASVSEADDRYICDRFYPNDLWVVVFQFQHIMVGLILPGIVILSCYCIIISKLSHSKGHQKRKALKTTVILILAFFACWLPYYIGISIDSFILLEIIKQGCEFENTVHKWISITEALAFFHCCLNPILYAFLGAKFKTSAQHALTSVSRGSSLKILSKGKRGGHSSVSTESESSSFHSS
hCXCR4-V196E (human), sequence (P61073 whole entry V196E): as the sequence (Q28474 whole entry) above, with I24M, H35N, R38K, K146R, S176N, V196E counted along it

anti-CXCR4 monoclonal antibody 12G5 (R&D Systems, MAB170)
100%: all assays above
